From US20230235013A1 (MABSOLVE, published 2023)
Positions count from the first letter of the chain named. Names and notes keep the numbering of the source.

Columns and labels:
[1] = target: T1, human FcRn (R&D Systems Cat. No. 8639-Fc) (human, UniProt P55899 24-297; P61769 21-119); assay: SPR, FcRn captured; Expt 1
[2] = target: T1, human FcRn (R&D Systems Cat. No. …); assay: SPR, FcRn captured; Mean
[3] = target: T1, human FcRn (R&D Systems Cat. No. …); assay: SPR, FcRn captured; Expt 3
[4] = target: T1, human FcRn (R&D Systems Cat. No. …); assay: SPR, FcRn captured; Expt 2
[5] = target: T2, Histidine-tagged recombinant human FcγRI (CD64) (human, UniProt P12314 16-288, limits assumed); assay: SPR, His-FcγRI captured; Expt 2;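 also: biacore T200 SPR at 25 °C, Fc-variant antibodies at 100 µg/mL flowed 1 min over anti-His-captured receptor, signal read near injection end minus third buffer blank; antibody analyte injected at 100 µg/mL for 1 min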
T2 construct: bought

[6] = target: T2, Histidine-tagged recombinant human …; assay: SPR, His-FcγRI captured; Expt 1;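 also: SPR at 25 °C on anti-His antibody chip capturing FcγRI, Fc-variant antibodies injected at 100 µg/mL for 1 min, signal near end of injection minus buffer blank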
[7] = target: T2, Histidine-tagged recombinant human …; assay: SPR, His-FcγRI captured; Expt 3;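 also: biacore T200 SPR at 25 °C, Fc-variant antibodies at 100 µg/mL flowed 1 min over anti-His-captured FcγRI, signal taken just before injection end minus a buffer blank cycle; antibody analyte injected at 100 µg/mL for 1 min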
[8] = target: T2, Histidine-tagged recombinant human …; assay: SPR, His-FcγRI captured; mean;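 also: biacore T200 SPR at 25 °C, anti-His surface capturing FcγRI, Fc-variant antibodies injected at 100 µg/mL for 1 min, signal near injection end minus third buffer blank, three repeats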
[9] = target: T3, Human C1q (Sigma Cat. No. 20476), HRP-labelled (human, UniProt P02745 23-245; P02746 28-253; P02747 29-245); assay: ELISA, antibody coated, HRP-C1q; Expt 1, buffer alone 0.061
T3 construct: Coupled to horse-radish peroxidase with Lightning-Link kit; also called HRP-labelled C1q

T1 sequence (P55899 24-297 limits assumed, chain 1 of 2): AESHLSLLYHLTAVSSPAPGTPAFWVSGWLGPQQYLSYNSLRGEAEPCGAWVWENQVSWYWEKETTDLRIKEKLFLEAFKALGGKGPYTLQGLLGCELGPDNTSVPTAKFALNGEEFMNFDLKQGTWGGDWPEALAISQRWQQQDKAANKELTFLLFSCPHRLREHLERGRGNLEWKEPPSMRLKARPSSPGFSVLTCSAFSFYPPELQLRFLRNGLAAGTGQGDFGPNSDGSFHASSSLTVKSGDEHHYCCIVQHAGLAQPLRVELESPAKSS
T1 sequence (P61769 21-119 limits assumed, chain 2 of 2): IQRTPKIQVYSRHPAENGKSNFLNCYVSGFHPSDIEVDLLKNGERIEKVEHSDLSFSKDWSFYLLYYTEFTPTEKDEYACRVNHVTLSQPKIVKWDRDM

B1: anti-CD20 (rituximab) human IgG1 L234A/L235A/K322A (antibody)
heavy: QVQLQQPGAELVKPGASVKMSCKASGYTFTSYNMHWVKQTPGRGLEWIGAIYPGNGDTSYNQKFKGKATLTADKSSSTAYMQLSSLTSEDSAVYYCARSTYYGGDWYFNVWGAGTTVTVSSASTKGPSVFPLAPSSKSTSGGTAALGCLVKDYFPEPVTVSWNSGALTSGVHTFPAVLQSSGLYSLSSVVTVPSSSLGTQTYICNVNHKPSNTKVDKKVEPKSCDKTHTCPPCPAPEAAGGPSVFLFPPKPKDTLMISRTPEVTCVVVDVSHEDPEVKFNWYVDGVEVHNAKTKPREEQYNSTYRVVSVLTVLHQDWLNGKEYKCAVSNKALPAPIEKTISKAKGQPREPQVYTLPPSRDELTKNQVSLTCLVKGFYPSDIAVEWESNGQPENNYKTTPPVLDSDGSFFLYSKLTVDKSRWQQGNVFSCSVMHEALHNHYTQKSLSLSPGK
light: QIVLSQSPAILSASPGEKVTMTCRASSSVSYIHWFQQKPGSSPKPWIYATSNLASGVPVRFSGSGSGTSYSLTISRVEAEDAATYYCQQWTSNPPTFGGGTKLEIKRTVAAPSVFIFPPSDEQLKSGTASVVCLLNNFYPREAKVQWKVDNALQSGNSQESVTEQDSKDSTYSLSSTLTLSKADYEKHKVYACEVTHQGLSSPVTKSFNRGEC
notes: EU numbering; also called 2-74; copies: 2 + 2
- Corrected and normalised response (% of wild-type reference) [1]: 94 % of wild-type reference
- Corrected and normalised response (% of wild-type reference) [2]: 94 % of wild-type reference
- Corrected and normalised response (% of wild-type reference) [3]: 93.3 % of wild-type reference
- Corrected and normalised response (% of wild-type reference) [4]: 94.7 % of wild-type reference

B2: anti-CD20 human IgG1 L234S/G236R (antibody)
heavy: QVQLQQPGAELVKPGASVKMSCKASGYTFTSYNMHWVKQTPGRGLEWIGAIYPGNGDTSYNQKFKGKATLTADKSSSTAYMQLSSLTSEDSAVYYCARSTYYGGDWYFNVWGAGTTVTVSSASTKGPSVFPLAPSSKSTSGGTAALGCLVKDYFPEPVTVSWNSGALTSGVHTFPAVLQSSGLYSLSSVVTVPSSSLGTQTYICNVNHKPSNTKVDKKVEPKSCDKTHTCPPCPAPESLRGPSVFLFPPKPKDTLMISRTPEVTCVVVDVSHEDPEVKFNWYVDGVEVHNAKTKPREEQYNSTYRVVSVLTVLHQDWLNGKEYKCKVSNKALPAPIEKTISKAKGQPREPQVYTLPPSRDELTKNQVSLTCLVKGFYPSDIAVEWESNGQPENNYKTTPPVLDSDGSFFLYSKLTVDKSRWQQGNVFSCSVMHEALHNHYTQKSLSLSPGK
light: B1 light
notes: also called 2-50
- Corrected response (RU) [5]: 21.6 RU
- Corrected response (RU) [6]: 33.7 RU
- Corrected response (RU) [7]: 30.9 RU
- Corrected response (RU), Mean [8]: 28.7 RU

B3: anti-CD20 (rituximab) human IgG1 L234R/L235I/G236R (antibody)
heavy: QVQLQQPGAELVKPGASVKMSCKASGYTFTSYNMHWVKQTPGRGLEWIGAIYPGNGDTSYNQKFKGKATLTADKSSSTAYMQLSSLTSEDSAVYYCARSTYYGGDWYFNVWGAGTTVTVSSASTKGPSVFPLAPSSKSTSGGTAALGCLVKDYFPEPVTVSWNSGALTSGVHTFPAVLQSSGLYSLSSVVTVPSSSLGTQTYICNVNHKPSNTKVDKKVEPKSCDKTHTCPPCPAPERIRGPSVFLFPPKPKDTLMISRTPEVTCVVVDVSHEDPEVKFNWYVDGVEVHNAKTKPREEQYNSTYRVVSVLTVLHQDWLNGKEYKCKVSNKALPAPIEKTISKAKGQPREPQVYTLPPSRDELTKNQVSLTCLVKGFYPSDIAVEWESNGQPENNYKTTPPVLDSDGSFFLYSKLTVDKSRWQQGNVFSCSVMHEALHNHYTQKSLSLSPGK
light: B1 light
notes: EU numbering; also called 2-39; copies: 2 + 2
- Mean Absorbance [9]: 0.169 absorbance (450 nm)

B4: anti-CD20 (rituximab) human IgG1 L234S/L235H/G236R (antibody)
heavy: B3 heavy with R238S, I239H
light: B1 light
notes: EU numbering; also called 2-48; copies: 2 + 2
- Mean Absorbance [9]: 0.04 absorbance (450 nm)

B5: anti-CD20 human IgG1 L234R/L235D/G236R (antibody)
heavy: B3 heavy with I239D
light: B1 light
- Corrected response (RU) [5]: 0.9 RU
- Corrected response (RU) [6]: 0.4 RU
- Corrected response (RU) [7]: 4.2 RU
- Corrected response (RU), Mean [8]: 1.8 RU

B6: anti-CD20 (rituximab) human IgG1 L234R/L235K/G236R (antibody)
heavy: B3 heavy with I239K
light: B1 light
notes: EU numbering; also called 2-40; copies: 2 + 2
- Mean Absorbance [9]: 0.055 absorbance (450 nm)

B7: anti-CD20 (rituximab) human IgG1 L234K/L235S/G236R (antibody)
heavy: B3 heavy with R238K, I239S
light: B1 light
notes: EU numbering; also called 2-24; 1-89; copies: 2 + 2
- Corrected and normalised response (% of wild-type reference) [1]: 100 % of wild-type reference
- Corrected and normalised response (% of wild-type reference) [2]: 100 % of wild-type reference
- Corrected and normalised response (% of wild-type reference) [3]: 100 % of wild-type reference
- Corrected and normalised response (% of wild-type reference) [4]: 99.7 % of wild-type reference

B8: anti-CD20 (rituximab) human IgG1 L234F/L235E/P331S (antibody)
heavy: B3 heavy with R238F, I239E, R240G, P335S
light: B1 light
notes: EU numbering; also called 2-75; copies: 2 + 2
- Corrected and normalised response (% of wild-type reference) [1]: 96.1 % of wild-type reference
- Corrected and normalised response (% of wild-type reference) [2]: 96.5 % of wild-type reference
- Corrected and normalised response (% of wild-type reference) [3]: 96.3 % of wild-type reference
- Corrected and normalised response (% of wild-type reference) [4]: 97.1 % of wild-type reference

B9: anti-CD20 (rituximab) human IgG1 L234K/L235R/G236R (antibody)
heavy: B3 heavy with R238K, I239R
light: B1 light
notes: EU numbering; also called 2-23; 1-88; copies: 2 + 2
- Corrected and normalised response (% of wild-type reference) [1]: 101 % of wild-type reference
- Corrected and normalised response (% of wild-type reference) [2]: 100 % of wild-type reference
- Corrected and normalised response (% of wild-type reference) [3]: 99.5 % of wild-type reference
- Corrected and normalised response (% of wild-type reference) [4]: 99.6 % of wild-type reference
- Mean Absorbance [9]: 0.059 absorbance (450 nm)

B10: anti-CD20 human IgG1 L234T/L235D/G236R (antibody)
heavy: B3 heavy with R238T, I239D
light: B1 light
notes: also called 2-55
- Corrected response (RU) [5]: 28.9 RU
- Corrected response (RU) [6]: 6 RU
- Corrected response (RU) [7]: 62.3 RU
- Corrected response (RU), Mean [8]: 32.4 RU

B11: anti-CD20 human IgG1 L234T/L235I/G236R (antibody)
heavy: B3 heavy with R238T
light: B1 light
notes: also called 2-57; 1-157
- Corrected response (RU) [5]: 17.3 RU
- Corrected response (RU) [6]: 7.2 RU
- Corrected response (RU) [7]: 24.2 RU
- Corrected response (RU), Mean [8]: 16.2 RU

B12: anti-CD20 (rituximab) human IgG1 L234Q/L235T/G236R (antibody)
heavy: B3 heavy with R238Q, I239T
light: B1 light
notes: EU numbering; also called 1-120; copies: 2 + 2
- Corrected and normalised response (% of wild-type reference) [1]: 95.6 % of wild-type reference
- Corrected and normalised response (% of wild-type reference) [2]: 95.3 % of wild-type reference
- Corrected and normalised response (% of wild-type reference) [3]: 95.2 % of wild-type reference
- Corrected and normalised response (% of wild-type reference) [4]: 95.1 % of wild-type reference

B13: anti-CD20 human IgG1 L234T/L235A/G236R (antibody)
heavy: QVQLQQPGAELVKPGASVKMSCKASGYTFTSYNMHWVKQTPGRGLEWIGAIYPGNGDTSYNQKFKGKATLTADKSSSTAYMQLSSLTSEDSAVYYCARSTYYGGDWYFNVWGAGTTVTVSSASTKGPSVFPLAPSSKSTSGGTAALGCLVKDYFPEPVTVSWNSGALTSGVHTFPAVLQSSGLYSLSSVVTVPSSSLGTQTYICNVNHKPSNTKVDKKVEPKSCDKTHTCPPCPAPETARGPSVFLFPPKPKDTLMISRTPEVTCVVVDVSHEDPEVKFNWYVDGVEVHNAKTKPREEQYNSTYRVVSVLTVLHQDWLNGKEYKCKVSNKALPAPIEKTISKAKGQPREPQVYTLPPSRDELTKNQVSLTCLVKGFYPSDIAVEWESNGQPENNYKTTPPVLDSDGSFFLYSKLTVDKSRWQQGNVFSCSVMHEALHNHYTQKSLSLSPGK
light: B1 light
notes: also called 2-54; 1-152
- Corrected response (RU) [5]: 4.8 RU
- Corrected response (RU) [6]: 4.3 RU
- Corrected response (RU) [7]: 7.2 RU
- Corrected response (RU), Mean [8]: 5.4 RU

B14: anti-CD20 human IgG1 L234S/L235I/G236R (antibody)
heavy: B3 heavy with R238S
light: B1 light
notes: also called 2-49
- Corrected response (RU) [5]: 4.2 RU
- Corrected response (RU) [6]: 3.9 RU
- Corrected response (RU) [7]: 6.4 RU
- Corrected response (RU), Mean [8]: 4.8 RU

B15: anti-CD20 (rituximab) human IgG1 L234T/L235R/G236R (antibody)
heavy: B3 heavy with R238T, I239R
light: B1 light
notes: EU numbering; also called 2-61; copies: 2 + 2
- Mean Absorbance [9]: 0.047 absorbance (450 nm)

B16: anti-CD20 human IgG1 L234S/L235E/G236R (antibody)
heavy: B3 heavy with R238S, I239E
light: B1 light
notes: also called 2-46
- Corrected response (RU) [5]: 5.3 RU
- Corrected response (RU) [6]: 3.7 RU
- Corrected response (RU) [7]: 6.9 RU
- Corrected response (RU), Mean [8]: 5.3 RU

B17: anti-CD20 human IgG1 L234Q/L235R/G236R (antibody)
heavy: B3 heavy with R238Q, I239R
light: B1 light
notes: also called 2-32
- Corrected response (RU) [5]: 2.6 RU
- Corrected response (RU) [6]: -0.2 RU
- Corrected response (RU) [7]: 9.4 RU
- Corrected response (RU), Mean [8]: 3.9 RU

B18: anti-CD20 (rituximab) human IgG1 L234R/L235H/G236R (antibody)
heavy: B3 heavy with I239H
light: B1 light
notes: EU numbering; also called 2-38; copies: 2 + 2
- Mean Absorbance [9]: 0.062 absorbance (450 nm)

B19: anti-CD20 (rituximab) human IgG1 L234D/L235K/G236R (antibody)
heavy: B3 heavy with R238D, I239K
light: B1 light
notes: EU numbering; also called 2-7; 1-23; copies: 2 + 2
- Corrected and normalised response (% of wild-type reference) [1]: 94.9 % of wild-type reference
- Corrected and normalised response (% of wild-type reference) [2]: 94.3 % of wild-type reference
- Corrected and normalised response (% of wild-type reference) [3]: 94.1 % of wild-type reference
- Corrected and normalised response (% of wild-type reference) [4]: 93.7 % of wild-type reference
- Mean Absorbance [9]: 0.049 absorbance (450 nm)

B20: anti-CD20 (rituximab) human IgG1 L234S/L235R/G236R (antibody)
heavy: B3 heavy with R238S, I239R
light: B1 light
notes: EU numbering; also called 2-51; copies: 2 + 2
- Mean Absorbance [9]: 0.037 absorbance (450 nm)
